Experimental data taken from publication PMC8761896.

Columns and labels:
BG505-SOSIP = BG505-SOSIP (UniProt Q2N0S6)
[1] = target: VRC01gl Fab with comL ('VQ' insertion at 103aL and 103bL, L104VL, E105DL); assay: dynamic light scattering
VRC01gl Fab with G107aL = assay: dynamic light scattering

Substance	Kd (BG505-SOSIP) [nM]	koff (BG505-SOSIP) [s⁻¹]	kon (BG505-SOSIP) [M⁻¹ s⁻¹]	stoichiometry N [1]	stoichiometry N (VRC01gl Fab with G107aL)
3BNC131 Fab H:Q39L	21.2	0.00095	44800		
VRC01gl Fab with comL ('VQ' insertion at 103aL and 103bL, L104VL, E105DL)				4	
VRC01gl Fab with G107aL					2
N6 Fab L:H38Q	0.0781	6.04e-06	76800		
